Results published in the RNAGym collection of RNA variant scans (doi:10.1093/molbev/msab373).

B1: Azoarcus group I ribozyme (parent)
chain: GUGCCUUGCGCCGGGAAACCACGCAAGGGAUGGUGUCAAAUUCGGCGAAACCUAAGCGCCCGCCCGGGCGUAUGGCAACGCCGAGCCAAGCUUCGGCGCCUGCGCCGAUGAAGGUGUAGAGACUAGACGGCACCCACCUAAGGCAAACGCUAUGGUGAAGGCAUAGUCCAGGGAGUGGCGAAAGUCACACAAACCGG

Variants of: B1
Assay: reverse-splicing fitness (ratio to wild type); higher = more active; in vitro selection; Mg2+ level not given
In short: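 An in vitro group I ribozyme library with randomized positions was T7-transcribed and gel-purified. In triplicate, 10 pmol RNA in EPPS pH 7.5 was reacted with 50 pmoles of a 30-nt RNA substrate for 1 h at 37 °C across several added MgCl2 levels (1–48 mM), then stopped with EDTA. Products were reverse transcribed from a substrate-complementary primer, PCR-amplified and sequenced (HiSeq 4000). Fitness is a variant's read proportion after selection over that before, normalised to wild type.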

| Variant | reverse-splicing fitness |
| --- | --- |
| GUGCCUUGCGCCGGGAAACCACGCAAGGGAUGGUGUCAAAUUCGGCGAAACCUAAGCGCCCGCCCGGGCGUAUGGCAACGCGGAGCCAAGCUUCGGCGCCUGCGCCGAUGUAGGUGUAGGGACUAGACGGCACCCACCUAAGGCCAACGUUAUGGUGAAGGCAUAGUCCAGGGAGAGGCGAAAGUCACACAAACCGG [C82G A111U A120G A145C C150U U176A] | 0.00941 |
| GUGCCUUGCGCCGGGAAACCACGCAAGGGAUGGUGUCAAAUUCGGCGAAACCUAAGCGCCCGCCCGGGCGUAUGGCAACGCGGAGCCAAGCUUCGGCGCCUGCGCCGAUGUAGGUGUAGGGACUAGACGGCACCCACCUAAGGCCAACGUUAUGGUGAAGGCAUAGUCCAGGGAGCGGCGAAAGUCACACAAACCGG [C82G A111U A120G A145C C150U U176C] | 0.012 |
| GUGCCUUGCGCCGGGAAACCACGCAAGGGAUGGUGUCAAAUUCGGCGAAACCUAAGCGCCCGCCCGGGCGUAUGGCAACGCGGAGCCAAGCUUCGGCGCCUGCGCCGAUGUAGGUGUAGGGACUAGACGGCACCCACCUAAGGCCAACGUUAUGGUGAAGGCAUAGUCCAGGGAGGGGCGAAAGUCACACAAACCGG [C82G A111U A120G A145C C150U U176G] | 0.00601 |
| GUGCCUUGCGCCGGGAAACCACGCAAGGGAUGGUGUCAAAUUCGGCGAAACCUAAGCGCCCGCCCGGGCGUAUGGCAACGCGGAGCCAAGCUUCGGCGCCUGCGCCGAUGUAGGUGUAGGGACUAGACGGCACCCACCUAAGGCCAACGCUAUGGUGAAGGCAUAGUCAAGGGAGUGGCGAAAGUCACACAAACCGG [C82G A111U A120G A145C C169A] | 0.00794 |
| GUGCCUUGCGCCGGGAAACCACGCAAGGGAUGGUGUCAAAUUCGGCGAAACCUAAGCGCCCGCCCGGGCGUAUGGCAACGCGGAGCCAAGCUUCGGCGCCUGCGCCGAUGUAGGUGUAGGGACUAGACGGCACCCACCUAAGGCCAACGCUAUGGUGAAGGCAUAGUCAAGGGAGAGGCGAAAGUCACACAAACCGG [C82G A111U A120G A145C C169A U176A] | 0.0152 |
| GUGCCUUGCGCCGGGAAACCACGCAAGGGAUGGUGUCAAAUUCGGCGAAACCUAAGCGCCCGCCCGGGCGUAUGGCAACGCGGAGCCAAGCUUCGGCGCCUGCGCCGAUGUAGGUGUAGGGACUAGACGGCACCCACCUAAGGCCAACGCUAUGGUGAAGGCAUAGUCAAGGGAGCGGCGAAAGUCACACAAACCGG [C82G A111U A120G A145C C169A U176C] | 0.00976 |
| GUGCCUUGCGCCGGGAAACCACGCAAGGGAUGGUGUCAAAUUCGGCGAAACCUAAGCGCCCGCCCGGGCGUAUGGCAACGCGGAGCCAAGCUUCGGCGCCUGCGCCGAUGUAGGUGUAGGGACUAGACGGCACCCACCUAAGGCCAACGCUAUGGUGAAGGCAUAGUCAAGGGAGGGGCGAAAGUCACACAAACCGG [C82G A111U A120G A145C C169A U176G] | 0.00399 |
| GUGCCUUGCGCCGGGAAACCACGCAAGGGAUGGUGUCAAAUUCGGCGAAACCUAAGCGCCCGCCCGGGCGUAUGGCAACGCGGAGCCAAGCUUCGGCGCCUGCGCCGAUGUAGGUGUAGGGACUAGACGGCACCCACCUAAGGCCAACGCUAUGGUGAAGGCAUAGUCGAGGGAGUGGCGAAAGUCACACAAACCGG [C82G A111U A120G A145C C169G] | 0.0125 |
| GUGCCUUGCGCCGGGAAACCACGCAAGGGAUGGUGUCAAAUUCGGCGAAACCUAAGCGCCCGCCCGGGCGUAUGGCAACGCGGAGCCAAGCUUCGGCGCCUGCGCCGAUGUAGGUGUAGGGACUAGACGGCACCCACCUAAGGCCAACGCUAUGGUGAAGGCAUAGUCGAGGGAGAGGCGAAAGUCACACAAACCGG [C82G A111U A120G A145C C169G U176A] | 0.0245 |
| GUGCCUUGCGCCGGGAAACCACGCAAGGGAUGGUGUCAAAUUCGGCGAAACCUAAGCGCCCGCCCGGGCGUAUGGCAACGCGGAGCCAAGCUUCGGCGCCUGCGCCGAUGUAGGUGUAGGGACUAGACGGCACCCACCUAAGGCCAACGCUAUGGUGAAGGCAUAGUCGAGGGAGCGGCGAAAGUCACACAAACCGG [C82G A111U A120G A145C C169G U176C] | 0.0172 |
| GUGCCUUGCGCCGGGAAACCACGCAAGGGAUGGUGUCAAAUUCGGCGAAACCUAAGCGCCCGCCCGGGCGUAUGGCAACGCGGAGCCAAGCUUCGGCGCCUGCGCCGAUGUAGGUGUAGGGACUAGACGGCACCCACCUAAGGCCAACGCUAUGGUGAAGGCAUAGUCGAGGGAGGGGCGAAAGUCACACAAACCGG [C82G A111U A120G A145C C169G U176G] | 0.00404 |
| GUGCCUUGCGCCGGGAAACCACGCAAGGGAUGGUGUCAAAUUCGGCGAAACCUAAGCGCCCGCCCGGGCGUAUGGCAACGCGGAGCCAAGCUUCGGCGCCUGCGCCGAUGUAGGUGUAGGGACUAGACGGCACCCACCUAAGGCCAACGCUAUGGUGAAGGCAUAGUCUAGGGAGUGGCGAAAGUCACACAAACCGG [C82G A111U A120G A145C C169U] | 0.00836 |
| GUGCCUUGCGCCGGGAAACCACGCAAGGGAUGGUGUCAAAUUCGGCGAAACCUAAGCGCCCGCCCGGGCGUAUGGCAACGCGGAGCCAAGCUUCGGCGCCUGCGCCGAUGUAGGUGUAGGGACUAGACGGCACCCACCUAAGGCCAACGCUAUGGUGAAGGCAUAGUCUAGGGAGAGGCGAAAGUCACACAAACCGG [C82G A111U A120G A145C C169U U176A] | 0.0203 |
| GUGCCUUGCGCCGGGAAACCACGCAAGGGAUGGUGUCAAAUUCGGCGAAACCUAAGCGCCCGCCCGGGCGUAUGGCAACGCGGAGCCAAGCUUCGGCGCCUGCGCCGAUGUAGGUGUAGGGACUAGACGGCACCCACCUAAGGCCAACGCUAUGGUGAAGGCAUAGUCUAGGGAGCGGCGAAAGUCACACAAACCGG [C82G A111U A120G A145C C169U U176C] | 0.0168 |
| GUGCCUUGCGCCGGGAAACCACGCAAGGGAUGGUGUCAAAUUCGGCGAAACCUAAGCGCCCGCCCGGGCGUAUGGCAACGCGGAGCCAAGCUUCGGCGCCUGCGCCGAUGUAGGUGUAGGGACUAGACGGCACCCACCUAAGGCCAACGCUAUGGUGAAGGCAUAGUCUAGGGAGGGGCGAAAGUCACACAAACCGG [C82G A111U A120G A145C C169U U176G] | 0.00479 |
